The nature of series [1]: Blood clearance of Cy5.5-labeled tracers after IV injection. In kind it is in vivo, mouse. Particulars: Cy5.5-conjugated tracer 0.5 mg/kg IV; mixed male/female 'AF + HF' and control mice, 28-31 weeks; blood NIR fluorescence at 2-4, 12, 240 min; one-phase decay fit; Mean±SEM, n=4 (EP-3533), n=8 (T-peptide). Here is the method: ‘AF + HF’ mice and non-transgenic controls (28–31 weeks) were intravenously injected with Cy5.5-labeled T-peptide or EP-3533 (0.5 mg/kg), as described above. Blood samples (2.5 µl) were collected from the opposite tail vein at 2–4, 12 and 240 min, and diluted in 47.5 µl of citrated PBS (0.32% w/v sodium citrate). 50 µl samples were transferred into 96-well plates (Optiplate, black-walled, transparent bottom; PerkinElmer, MA, USA) and scanned on the Odyssey CLx NIRF scanner using the ‘Manual L1’ intensity and 3 mm focus offset settings. Following subtraction of unlabeled blood background, the total fluorescence per well was plotted against time. The blood fluorescence levels at t = 0 and half-life were extrapolated from a one-phase decay non-linear regression, and the data was presented as percentage from the value of t = 0[26].

The nature of the next series: Mouse plasma stability. In kind it is in vitro ADME. Particulars: Cy5.5-T-peptide 100 µg in 200 µL naïve C57BL/6 mouse plasma (citrated), 37 °C, acetonitrile precipitation, HPLC C18, 280 nm. Here is the method: Cy5.5-T-Peptide (100 µg, 10 µL in PBS) was added to 200 µL of naïve C57BL/6 mouse plasma and the sample was incubated at 37 °C over 4 h. Aliquots (40 µL) were taken from the mixture at 5, 10, 30, 60 and 240 min, and then added to 40 µL of acetonitrile. The formed precipitates were separated by centrifugation and the supernatant was analyzed by HPLC. The percentage of decomposition at each timepoint was then calculated from the chromatograms (Supplementary Fig. 1). The HPLC conditions were: Phenomenex Luna® 5 µm C18(2) 100 Å, LC Column 150 ×4.6 mm at a flow rate of 1 mL/min (Method: 5–95% buffer B to A over 20 min, λabs = 280 nm).

Series [2] deals with MMP-2-degraded collagen IV.
Procedure: Ex vivo fluorescent imaging was performed according to our published protocol[26]. In brief, fluorescently-tagged EP-3533 or the T-peptide were injected intravenously into mice at 0.5 mg/kg via the tail vein. The S-peptide was delivered at 0.466 mg/kg, being the identical mole equivalent to the T-peptide (0.258 µmol/kg). Injections were performed by a person blinded to the administered substance. Animals were humanely euthanised 4 h post-injection by an overdose of ketamine (300 mg/kg) and xylazine (30 mg/kg) and perfused via the heart with 20 ml of PBS. The liver, lung, spleen, kidney, brain, thigh muscle and the heart were next harvested and the atria separated from the ventricles. Organs were then scanned on the Odyssey CLx NIRF 2-D scanner (Li-Cor Biosciences, NE, USA) at 169 µm resolution using the ‘Manual L1’ or ‘L2’ intensity and 0.5 mm focus offset settings. A noninjected mouse served for background correction. The mean fluorescence intensity value per pixel (1 pixel = 169 × 169 µm = 0.0285 mm^2) were then extracted from regions of interest using Image Studio 5.2 software (Li-Cor Biosciences).
The mark [3] stands for this setting: 'AF + HF' mice, Cy5.5 conjugates equimolar 0.258 µmol/kg IV, 4 h, ex vivo NIR, S-peptide signal corrected for brightness, n=5 per group.

Experimental findings from publication PMC12912425, “Collagen-targeted tracers for molecular imaging of atrial fibrosis and sensitive detection of atrial fibrillation” (npj Cardiovascular Health, 2025) are described below.

Consider TLTYTWS [Cy5.5-T-peptide], for which the “blood (circulating) half-life” value in series [1] worked out at 9.23 ± 0.9 min. Moreover, the “tracer remaining intact after 60 min in mouse plasma” value in the series “Mouse plasma stability” (60 min) is listed as 60%. Further, the “tracer remaining intact after 4 h in mouse plasma” value in “Mouse plasma stability” (240 min) is listed as 22%. Also, in series [2] (setting [3]), the “T-peptide binding in atria relative to the S-peptide” value is reported as 1.72 fold and the “T-peptide binding in ventricles relative to the S-peptide” value was 1.78 fold. Moreover, the “atria/ventricles retention in 'AF + HF' mice” value in series [2] (mouse, in vivo) turned out to be 2.61 fold.
